Legend:
AtARF5-DBD [1] = target: T1, AtARF5-DBD (Arabidopsis thaliana, UniProt P93024 1-390); test: size-exclusion chromatography
T1 sequence: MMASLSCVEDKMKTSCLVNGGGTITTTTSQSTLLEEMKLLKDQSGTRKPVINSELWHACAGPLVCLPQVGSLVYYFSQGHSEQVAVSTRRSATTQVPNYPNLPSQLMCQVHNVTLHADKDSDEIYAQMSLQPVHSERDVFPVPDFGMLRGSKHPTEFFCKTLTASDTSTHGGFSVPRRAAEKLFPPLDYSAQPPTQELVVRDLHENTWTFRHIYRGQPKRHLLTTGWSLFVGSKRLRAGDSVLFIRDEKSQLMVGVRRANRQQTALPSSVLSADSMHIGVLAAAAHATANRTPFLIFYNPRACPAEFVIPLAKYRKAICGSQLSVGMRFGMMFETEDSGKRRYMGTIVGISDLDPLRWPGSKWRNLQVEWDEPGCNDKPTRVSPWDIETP

AtARF5-DBD [2] = target: T1, AtARF5-DBD; test: smFRET titration
AtARF1-DBD = target: T2, AtARF1-DBD (Arabidopsis thaliana, UniProt Q8L7G0 1-355); test: smFRET titration
T2 sequence: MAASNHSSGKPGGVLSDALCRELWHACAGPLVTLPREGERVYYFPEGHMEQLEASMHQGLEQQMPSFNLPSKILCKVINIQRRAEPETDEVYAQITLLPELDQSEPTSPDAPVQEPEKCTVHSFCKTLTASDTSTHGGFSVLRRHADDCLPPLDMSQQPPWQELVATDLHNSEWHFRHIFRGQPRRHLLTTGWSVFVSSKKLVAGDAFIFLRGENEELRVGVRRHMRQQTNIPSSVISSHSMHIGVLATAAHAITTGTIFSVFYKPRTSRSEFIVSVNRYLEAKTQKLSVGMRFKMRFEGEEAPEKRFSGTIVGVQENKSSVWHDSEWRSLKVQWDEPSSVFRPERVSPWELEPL

Binder | binding result (AtARF5-DBD [1]) | Kd (AtARF5-DBD [2]) [nM] | Kd (AtARF1-DBD) [nM]
pTMO5Δ2-IR7 (dsDNA) DNA 1: TTTTTTTTGGTCGGTTTTTTA DNA 2: TAAAAAACCGACCAAAAAAAA | no binding | – | –
IR8 (dsDNA) DNA 1: ACTCTTTTTTGTCGGGGAAAAGGCCGACAATCCGTGTG DNA 2: CACACGGATTGTCGGCCTTTTCCCCGACAAAAAAGAGT | – | 9 | 140
DR5 (dsDNA) DNA 1: ACTGCCTTTTGTCGGCCTTTTGTCGGATCCGTGTG DNA 2: CACACGGATCCGACAAAAGGCCGACAAAAGGCAGT | – | 60 | 570
pTMO5Δ1-IR7 (dsDNA) DNA 1: TGGTCTCTGGTCGGTTTTTTA DNA 2: TAAAAAACCGACCAGAGACCA | no binding | – | –
